Consider one molecule from patent US8124375B2, “Geraniol synthase, methods of production and uses thereof” (The Regents Of The University Of Michigan, priority 2003, dated 2012).

A short description of data set [1]: GES enzyme assay (conversion of [1-3H]-GDP, hexane-extractable product counted by scintillation). Format: biochemical. Conditions: GES purification from gland of basil “Sweet Dani” cultivar. As to the method: GES activity was assayed by incubating 5 μl of the enzyme sample in a final volume of 50 μl buffer containing 50 mM Hepes-KOH, pH 8.0, 1 mM DTE, 0.5 mM MnCI2, 20 mM MgCl2, 10% glycerol and 54 μM [1-3H]-GDP (specific activity 20 Ci/mol, American Radiolabeled Chemicals, St. Louis, Mo.). After incubation for 30 mm at […], 160 μl hexane was added to the tube, and vortexed briefly and centrifuged to separated the phases. The hexane layer was directly placed into a scintillation vial containing 2 ml of nonaqueous scintillation fluid (Econo-Safe, Research Products International, Mount Prospect Ill.). This extraction procedure was repeated twice and the total hexane phase was counted by Liquid Scintillation counter (LS-6500 model, Beckman Coulter, Fullerton, Calif.). Boiled enzyme extracts were used as controls.

A short description of data set [2]: Identification of enzymatic products of GES with GDP by SPME GC-MS. As to conditions: SPME gas chromatogram of the reaction solution, peak identified by MS. It is filed as biochemical. As to the method: GES enzyme assays were also performed by adding 100 μl of enzyme solution with 900 μl assay solution containing 54 μM non-radioactive GDP (Echelon Research Laboratories, Salt Lake City, Utah) and the same buffer described above. The reactions were carried out in an 8 mL DuPont autosampler vial with a white solid-top polypropylene cap (Alltech, Deerfield, Ill.). After letting the reaction proceed for 2-4 hr at 32° C., the liberated compounds were collected with a solid-phase microextraction (SPME) device PDMS-100 with a polydimethylsiloxane fiber (Supelco, Bekkefonte, Pa.) by inserting the fiber into the tube and leaving it in for 20 mim at 42° C. After this incubation step, the solid-phase microextraction fiber was directly injected into the GC-MS.

B1: Superose12: geraniol synthase purified from basil glands after Superose 12 size exclusion chromatography (protein, UniProt Q6USK1 64-567, looked up)
Geraniol synthase, …: QHMEESSSKRREYLLEETTRKLQRNDTESVEKLKLIDNIQQLGIGYYFEDAINAVLRSPFSTGEEDLFTAALRFRLLRHNGIEISPEIFLKFKDERGKFDESDTLGLLSLYEASNLGVAGEEILEEAMEFAEARLRRSLSEPAAPLHGEVAQALDVPRHLRMARLEARRFIEQYGKQSDHDGDLLELAILDYNQVQAQHQSELTEIIRWWKELGLVDKLSFGRDRPLECFLWTVGLLPEPKYSSVRIELAKAISILLVIDDIFDTYGEMDDLILFTDAIRRWDLEAMEGLPEYMKICYMALYNTTNEVCYKVLRDTGRIVLLNLKSTWIDMIEGFMEEAKWFNGGSAPKLEEYIENGVSTAGAYMAFAHIFFLIGEGVTHQNSQLFTQKPYPKVFSAAGRILRLWDDLGTAKEEQERGDLASCVQLFMKEKSLTEEEARSRILEEIKGLWRDLNGELVYNKNLPLSIIKVALNMARASQVVYKHDQDTYFSSVDNYVDALFFTQ
Consider B1, for which the Total activity in data set [1] (activity of the fraction after the named purification step) came to 337.2 ptat. In data set [1] (activity per mg protein after the named purification step), this molecule registered a Specific activity of 6244.2 pkat/mg. In addition, the “Products of the reaction catalyzed by purified GES with GDP” value in data set [2] is on record as “Only a single peak was observed, identified as geraniol”.
